Earlier results on one molecule are cited in US20110294730A1, “METHOD OF TREATING GLAUCOMA AND INTRAOCULAR HYPERTENSION” (priority 2010, published 2011).

The test system of the data set is trabecular meshwork.

B1: IL-Ia: exogenous growth factor (protein, UniProt P01583 113-271, looked up)
Interleukin-1 alpha: SAPFSFLSNVKYNFMRIIKYEFILNDALNQSIIRANDQYLTAAALHNLDEAVKFDMGAYKSSKDDAKITVILRISKTQLYVTAQDEDQPVLLKEMPEIPKTITGSETNLLFFWETHGTKNYFTSVAHPNLFIATKQDYWVCLAGGPPSITDFQILENQA
Consider B1, for which the extracellular acidification result is “significantly stimulated”.
